What all share (settings): protein: recombinant; tags: N-terminal His-SUMO removed by TEV; label: 5'-6-FAM; predicted intramolecular fold
One data set has as its target T1, PARP4 BRCT WT (human, UniProt Q9UKK3 1-100).
T1 sequence: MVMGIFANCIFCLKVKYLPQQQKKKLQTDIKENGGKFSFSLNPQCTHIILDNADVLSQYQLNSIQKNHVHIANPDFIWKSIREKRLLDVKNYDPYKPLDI
In words: FP; 3 nM probe; FP: 50 mM Tris pH 7.5, 50 mM NaCl, 1 mM MgCl2, 0.05% NP40, 2 mM DTT, 5% glycerol, 25 ug/ml BSA, room temp 30 min; EMSA: 50 mM Tris pH 7.5, 50 mM NaCl, 4% Ficoll PM400, 0.05% NP40, 2 mM DTT, 0-18 uM protein, room temp 30 min, gel at 4 C. On the technique in general: In EMSA bound probe runs differently from free probe, usually more slowly.

Another data set concerns the target T2, PARP4 BRCT F39Q (human, UniProt Q9UKK3 1-100, F39Q).
T2 sequence: T1 sequence with F39Q
The data set is described as above.

The target of the next data set is T3, PARP4 BRCT K31Q (human, UniProt Q9UKK3 1-100, K31Q).
T3 sequence: T1 sequence with K31Q
Described as above.

A further data set addresses T4, PARP4 BRCT K23/24Q (human, UniProt Q9UKK3 1-100, K23Q;K24Q).
T4 sequence: T1 sequence with K23Q, K24Q
The data set is described as above.

Data set [1] concerns the target T5, PARP4 BRCT-WGR-CAT K23/24Q (human, UniProt Q9UKK3 1-573, K23Q;K24Q).
T5 sequence: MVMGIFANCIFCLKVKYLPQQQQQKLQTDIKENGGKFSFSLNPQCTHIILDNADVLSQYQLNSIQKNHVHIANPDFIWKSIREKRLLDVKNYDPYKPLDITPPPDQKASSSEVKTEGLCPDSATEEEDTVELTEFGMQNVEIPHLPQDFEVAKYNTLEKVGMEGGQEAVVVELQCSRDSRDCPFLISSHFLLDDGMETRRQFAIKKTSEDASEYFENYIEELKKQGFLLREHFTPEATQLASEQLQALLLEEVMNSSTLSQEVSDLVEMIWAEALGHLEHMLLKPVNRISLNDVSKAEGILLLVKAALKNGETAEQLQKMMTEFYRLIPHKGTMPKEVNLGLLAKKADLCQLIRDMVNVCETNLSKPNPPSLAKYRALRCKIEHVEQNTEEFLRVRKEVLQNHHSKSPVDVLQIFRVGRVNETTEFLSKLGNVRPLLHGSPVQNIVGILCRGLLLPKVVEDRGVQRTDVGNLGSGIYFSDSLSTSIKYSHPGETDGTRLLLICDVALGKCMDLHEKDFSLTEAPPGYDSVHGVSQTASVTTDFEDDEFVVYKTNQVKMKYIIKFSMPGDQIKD
The data set is described as above.

The target of a further data set is T6, PARP4 BRCT-WGR-CAT WT (human, UniProt Q9UKK3 1-573).
T6 sequence: T5 sequence with Q23K, Q24K
In words: FP; 3 or 15 nM probe; FP: 50 mM Tris pH 7.5, 50 mM NaCl, 1 mM MgCl2, 0.05% NP40, 2 mM DTT, 5% glycerol, 25 ug/ml BSA, room temp 30 min; EMSA: 50 mM Tris pH 7.5, 50 mM NaCl, 4% Ficoll PM400, 0.05% NP40, 2 mM DTT, 0-18 uM protein, room temp 30 min, gel at 4 C.

Where a chain is given by its changes, count along the chain named.

B1: vtRNA1-3 (structured_RNA)
RNA: GGCUGGCUUUAGCUCAGCGGUUACUUCGCGUGUCAUCAAACCACCUCUCUGGGUUGUUCGAGACCCGCGGGCGCUCUCCAGCCCUCUU
By Kd is commonly meant the constant that tells how readily two partners part at equilibrium. On to B1, for which the Kd is 19 ± 4 µM with PARP4 BRCT WT; 35 ± 10 µM in the data set with PARP4 BRCT F39Q; 61 ± 12 µM with PARP4 BRCT K31Q; 71 ± 26 µM in data set [1]; 27 ± 9 µM with PARP4 BRCT-WGR-CAT WT. Further, the binding result with PARP4 BRCT K23/24Q is on record as “no binding”.

Values taken from publication PMC12212138, “Crystal structure and mutagenesis of a nucleic acid–binding BRCT domain in human PARP4”.
